Source: patent publication US20200308303A1

Assays:
[1] = biological target: human ADAMTS13 (A Disintegrin And Metalloproteinase with a ThromboSpondin type 1 motif, member 13) (human) (UniProt Q76LX8); assay: sandwich ELISA: dilution series of coated antibody (10 to 0.02 µg/mL), constant 15% normal human plasma; half maximal binding by nonlinear regression
[2] = biological target: human ADAMTS13 (A Disintegrin And Metalloproteinase with a ThromboSpondin type 1 motif, member 13) (human) (UniProt Q76LX8); assay: cell-based or functional assay

human ADAMTS13 (A Disintegrin And Metalloproteinase with a ThromboSpondin type 1 motif, member 13) (human), sequence (Q76LX8 75-1427): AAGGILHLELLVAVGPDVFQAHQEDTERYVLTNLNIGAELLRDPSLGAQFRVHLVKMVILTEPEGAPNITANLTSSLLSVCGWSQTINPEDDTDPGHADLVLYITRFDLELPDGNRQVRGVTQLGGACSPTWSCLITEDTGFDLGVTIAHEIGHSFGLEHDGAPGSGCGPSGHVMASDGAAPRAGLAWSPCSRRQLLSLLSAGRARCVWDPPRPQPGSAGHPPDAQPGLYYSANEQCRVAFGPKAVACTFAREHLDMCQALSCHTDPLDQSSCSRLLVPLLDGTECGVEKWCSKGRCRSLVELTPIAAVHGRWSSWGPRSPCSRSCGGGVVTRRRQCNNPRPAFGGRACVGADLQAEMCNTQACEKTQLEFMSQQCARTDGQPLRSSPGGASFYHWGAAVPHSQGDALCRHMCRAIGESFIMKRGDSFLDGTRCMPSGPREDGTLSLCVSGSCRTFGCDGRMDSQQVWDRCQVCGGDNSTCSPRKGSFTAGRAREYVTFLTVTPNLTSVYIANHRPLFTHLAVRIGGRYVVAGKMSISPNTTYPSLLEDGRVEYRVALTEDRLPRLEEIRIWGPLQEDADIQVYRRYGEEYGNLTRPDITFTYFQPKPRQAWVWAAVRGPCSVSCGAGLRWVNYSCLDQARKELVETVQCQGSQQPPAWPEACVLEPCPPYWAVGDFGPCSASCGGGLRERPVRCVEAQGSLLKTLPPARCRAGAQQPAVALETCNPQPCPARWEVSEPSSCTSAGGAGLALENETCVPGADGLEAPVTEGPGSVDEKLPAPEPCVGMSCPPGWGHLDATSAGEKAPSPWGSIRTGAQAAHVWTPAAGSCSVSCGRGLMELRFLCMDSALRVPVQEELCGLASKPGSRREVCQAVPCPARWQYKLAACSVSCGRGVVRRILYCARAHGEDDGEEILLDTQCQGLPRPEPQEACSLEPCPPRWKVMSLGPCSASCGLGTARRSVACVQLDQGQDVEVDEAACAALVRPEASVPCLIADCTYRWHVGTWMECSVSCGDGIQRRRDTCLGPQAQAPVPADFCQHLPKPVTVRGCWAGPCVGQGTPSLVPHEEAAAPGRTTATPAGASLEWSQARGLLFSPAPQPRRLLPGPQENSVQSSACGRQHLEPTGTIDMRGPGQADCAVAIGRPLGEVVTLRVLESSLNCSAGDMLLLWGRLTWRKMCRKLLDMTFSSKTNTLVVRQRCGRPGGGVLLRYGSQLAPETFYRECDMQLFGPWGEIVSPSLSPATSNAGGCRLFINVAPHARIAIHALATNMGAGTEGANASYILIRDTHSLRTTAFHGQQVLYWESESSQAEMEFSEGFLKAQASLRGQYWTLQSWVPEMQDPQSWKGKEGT

B1: monoclonal anti-ADAMTS13 antibody 17C7 (antibody, V domains shown)
VH: EVQLVESGGDLVKSGGSLKLSCAASGFIFSNYAMSWVRQTPEKRLEWGATITTGGFYTFYSDSVKGRFTISRDNAKNTLYLQMSSLRSEDTAMYYCARHRYDDYYALDYWGQGTSVTVSS
VL: ENVLTQSPAIMSTSPGEKVTMTCNVSSSVSYMRWFQQKSSTSPKLWIYDTSKLASGVPGRFSGSGSGHSYSLTISSMEADDVATYYCFQGNGYPLTFGAGTKLELK
modifications: Biotinylated when used as detector; the site is not stated and the letters cannot carry it.
Question: With B1 as the binder, how does the half-maximal binding concentration (EC50) of coated antibody [1] read?
Answer: 0.51 µg/mL

Question: And the half maximal inhibitory concentration (IC50) of ADAMTS13 activity in normal human plasma, FRETS-VWF73 assay [2]?
Answer: 0.47 µg/mL
